This note sets out measurements from US20250092426, “CAS ENDONUCLEASES AND RELATED METHODS” (Flagship Pioneering Innovations VII, LLC, published 2025).

The data set addresses T1, CasEnd-36 (synthetic construct).
T1 chain: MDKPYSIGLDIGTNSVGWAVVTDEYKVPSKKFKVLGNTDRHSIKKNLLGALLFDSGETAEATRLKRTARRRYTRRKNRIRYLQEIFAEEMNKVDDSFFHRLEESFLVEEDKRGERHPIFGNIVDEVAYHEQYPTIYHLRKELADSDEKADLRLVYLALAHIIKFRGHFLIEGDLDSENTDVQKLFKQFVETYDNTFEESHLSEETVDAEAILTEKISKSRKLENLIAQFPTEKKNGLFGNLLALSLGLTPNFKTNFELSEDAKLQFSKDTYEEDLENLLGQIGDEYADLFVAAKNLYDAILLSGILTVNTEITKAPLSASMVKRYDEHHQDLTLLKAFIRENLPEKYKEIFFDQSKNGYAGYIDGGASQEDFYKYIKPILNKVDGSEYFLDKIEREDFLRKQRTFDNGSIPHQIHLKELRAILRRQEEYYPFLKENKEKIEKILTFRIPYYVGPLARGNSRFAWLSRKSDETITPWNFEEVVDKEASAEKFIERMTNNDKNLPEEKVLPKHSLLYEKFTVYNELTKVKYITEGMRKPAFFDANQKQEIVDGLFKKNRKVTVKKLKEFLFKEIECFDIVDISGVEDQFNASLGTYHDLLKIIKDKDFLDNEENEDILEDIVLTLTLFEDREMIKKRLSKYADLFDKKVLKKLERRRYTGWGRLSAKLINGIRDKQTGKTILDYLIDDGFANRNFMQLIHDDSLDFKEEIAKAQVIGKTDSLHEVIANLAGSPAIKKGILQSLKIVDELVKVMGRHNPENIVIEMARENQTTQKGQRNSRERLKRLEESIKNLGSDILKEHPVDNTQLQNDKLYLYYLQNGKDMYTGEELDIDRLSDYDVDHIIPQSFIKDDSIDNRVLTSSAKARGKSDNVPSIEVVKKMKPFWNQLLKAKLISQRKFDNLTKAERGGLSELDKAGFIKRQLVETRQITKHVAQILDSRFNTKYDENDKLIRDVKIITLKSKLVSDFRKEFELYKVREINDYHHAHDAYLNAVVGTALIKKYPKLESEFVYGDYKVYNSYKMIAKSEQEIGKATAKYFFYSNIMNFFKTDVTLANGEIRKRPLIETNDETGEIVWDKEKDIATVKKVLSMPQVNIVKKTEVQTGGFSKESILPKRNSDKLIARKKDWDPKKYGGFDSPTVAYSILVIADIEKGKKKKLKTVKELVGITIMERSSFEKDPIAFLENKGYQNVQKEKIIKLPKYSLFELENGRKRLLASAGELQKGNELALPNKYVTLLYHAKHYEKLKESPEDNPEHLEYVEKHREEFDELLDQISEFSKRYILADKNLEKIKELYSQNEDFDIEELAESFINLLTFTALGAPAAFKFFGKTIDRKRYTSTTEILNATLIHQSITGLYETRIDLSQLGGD
Briefly: cell_activity; +++; HEK293T; PAM not stated. In a few lines: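 Editing activity was scored as the fraction of GFP+ cells on day 4 by flow cytometry. BFP-expressing HEK293T cells (250,000) received by nucleofection 200 ng plasmid for the RT-Cas fusion protein and 200 ng template RNA plasmid designed to convert BFP to GFP.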

B1: BFP-to-GFP template RNA ; BFP reporter protospacer (ssRNA ; dsDNA)
RNA: GCCGAAGCACUGCACGCCGUGUUUUAGAGCUAGAAAUAGCAAGUUAAAAUAAGGCUAGUCCGUUAUCAACUUGAAAAAGUGGCACCGAGUCGGUGCACCCUGACGUACGGCGUGCAGUGCUU
DNA 1: GCCGAAGCACTGCACGCCGT
DNA 2: ACGGCGTGCAGTGCTTCGGC
As to B1, the activity is ≥ 100 % of reference.
